We go through 2 molecules from paper PMC10700650, “Enhancing the thermostability and activity of glycosyltransferase UGT76G1 via computational design” (Communications Chemistry, 2023).

Series [1] has as its target 76_4 (designed UGT76G1 variant) (Stevia rebaudiana, UniProt Q6VAB4, L101F/S192K/R297W/V300K/S305P/G348P, form not given). Conditions: 1 mM UDPG; 0-300 uM ST; ST to RebA conversion; 2 min time course.
Substrate in the series “purified protein”: C=C1C[C@@]23CC[C@H]4[C@@](C)(CCC[C@@]4(C)C(=O)O[C@@H]4O[C@H](CO)[C@@H](O)[C@H](O)[C@H]4O)[C@@H]2CC[C@]1(O[C@@H]1O[C@H](CO)[C@@H](O)[C@H](O)[C@H]1O[C@@H]1O[C@H](CO)[C@@H](O)[C@H](O)[C@H]1O)C3
Briefly: purified protein. Conditions: 1 mM UDPG; 0-300 uM ST; ST to RebA conversion; 2 min time course.

76_4 (designed UGT76G1 variant), sequence (Q6VAB4 12-458 L101F/S192K/R297W/V300K/S305P/G348P, form open): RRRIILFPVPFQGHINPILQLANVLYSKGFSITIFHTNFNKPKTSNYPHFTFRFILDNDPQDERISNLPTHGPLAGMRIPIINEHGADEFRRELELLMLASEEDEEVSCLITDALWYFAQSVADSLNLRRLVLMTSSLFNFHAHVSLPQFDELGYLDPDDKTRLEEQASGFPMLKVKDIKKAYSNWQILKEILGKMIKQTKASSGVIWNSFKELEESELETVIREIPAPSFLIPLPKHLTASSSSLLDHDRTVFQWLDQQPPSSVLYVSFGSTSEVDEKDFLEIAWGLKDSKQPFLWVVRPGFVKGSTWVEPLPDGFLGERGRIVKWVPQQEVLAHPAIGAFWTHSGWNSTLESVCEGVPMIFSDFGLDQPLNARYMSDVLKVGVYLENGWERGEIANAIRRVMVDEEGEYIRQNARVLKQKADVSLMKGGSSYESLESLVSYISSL

As usually defined, the Km is the substrate concentration at which the rate is half of its maximum. As for `C=C1C[C@@]23CC[C@H]4[C@@](C)(CCC[C@@]4(C)C(=O)O[C@@H]4O[C@H](CO)[C@@H](O)[C@H](O)[C@H]4O)[C@@H]2CC[C@]1(O[C@@H]1O[C@H](CO)[C@@H](O)[C@H](O)[C@H]1O[C@@H]1O[C@H](CO)[C@@H](O)[C@H](O)[C@H]1O)C3` [ST, stevioside], the Km in series [1] was found to be 34.5 ± 3 µM.

B1: UGT76G1 (WT) (Stevia rebaudiana) (protein)
chain: MENKTETTVRRRRRIILFPVPFQGHINPILQLANVLYSKGFSITIFHTNFNKPKTSNYPHFTFRFILDNDPQDERISNLPTHGPLAGMRIPIINEHGADELRRELELLMLASEEDEEVSCLITDALWYFAQSVADSLNLRRLVLMTSSLFNFHAHVSLPQFDELGYLDPDDKTRLEEQASGFPMLKVKDIKSAYSNWQILKEILGKMIKQTKASSGVIWNSFKELEESELETVIREIPAPSFLIPLPKHLTASSSSLLDHDRTVFQWLDQQPPSSVLYVSFGSTSEVDEKDFLEIARGLVDSKQSFLWVVRPGFVKGSTWVEPLPDGFLGERGRIVKWVPQQEVLAHGAIGAFWTHSGWNSTLESVCEGVPMIFSDFGLDQPLNARYMSDVLKVGVYLENGWERGEIANAIRRVMVDEEGEYIRQNARVLKQKADVSLMKGGSSYESLESLVSYISSL
In general, kcat refers to the maximal rate divided by the concentration of active sites. Consider B1, for which, in the series “purified protein”, the Km is listed as 92.0 ± 5.3 µM and the kcat was determined as 0.288 ± 0.0267 s⁻¹.
